Data as given in the supplement of paper PMC7125110.
± gives the standard error. For part of these data: This sample holds only a part of the variants without activity.

B1: glmS ribozyme (parent)
chain: AUAAAAGCGCCAGAACUACAGAAAUGUAGUUGACGAGGAGGAGGUUUAUCGAAUUUUCGGCGGAUGCCUCCAAA

Legend:
Conditions in all cases: with glucosamine-6-phosphate
glucosamine-6-phosphate [1] = variants of: B1; assay: kcat; higher = faster cleavage; RNA array
Method in brief: (§1)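 Sequenced MiSeq chips were the platform: E. coli RNA polymerase transcribed barcoded ribozyme variants on them in situ, and a hybridised Cy3 probe tracked these at 37 °C. After glucosamine-6-phosphate (40 μM to 10 mM) in HEPES/KCl/Mg(OAc)2 buffer was flowed in, tiles were imaged over ~14 h. Signals normalised to baseline and to non-cleaving reference variants were reduced to per-tile medians and fit to one- or two-exponential decays to obtain kobs. kcat and KM were derived through weighted Michaelis–Menten fits across concentrations.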

glucosamine-6-phosphate [2] = variants of: B1; assay: self-cleavage kobs at 40 uM GlcN6P; higher = faster cleavage; RNA array
Method in brief: as §1

glucosamine-6-phosphate [3] = variants of: B1; assay: self-cleavage kobs at 640 uM GlcN6P; higher = faster cleavage; RNA array
Method in brief: as §1

glucosamine-6-phosphate [4] = variants of: B1; assay: self-cleavage kobs at 2500 uM GlcN6P; higher = faster cleavage; RNA array
Method in brief: as §1

glucosamine-6-phosphate [5] = variants of: B1; assay: self-cleavage kobs at 10000 uM GlcN6P; higher = faster cleavage; RNA array
Method in brief: as §1

glucosamine-6-phosphate [6] = variants of: B1; assay: KM; higher = weaker cofactor use; RNA array
Method in brief: as §1

glucosamine-6-phosphate [7] = variants of: B1; assay: self-cleavage kobs at 160 uM GlcN6P; higher = faster cleavage; RNA array
Method in brief: as §1

| Variant | kcat (glucosamine-6-phosphate [1]) [s⁻¹] | self-cleavage kobs at 40 uM GlcN6P (glucosamine-6-phosphate [2]) [s⁻¹] | self-cleavage kobs at 640 uM GlcN6P (glucosamine-6-phosphate [3]) [s⁻¹] | self-cleavage kobs at 2500 uM GlcN6P (glucosamine-6-phosphate [4]) [s⁻¹] | self-cleavage kobs at 10000 uM GlcN6P (glucosamine-6-phosphate [5]) [s⁻¹] | KM (glucosamine-6-phosphate [6]) [µM] | self-cleavage kobs at 160 uM GlcN6P (glucosamine-6-phosphate [7]) [s⁻¹] |
| --- | --- | --- | --- | --- | --- | --- | --- |
| AUAAAAGCGCCAGAAUUACAGAAAUGUAGUUGACGAGGAGGAGGUUUAUCGAACUUUCGGCGGAUGCCCCCAAA [C16U U54C U69C] | 0.0043 ± 0.0021 | 0.000216 ± 7.7e-05 | 0.000965 ± 0.00017 | 0.00258 ± 0.00059 | 0.00361 ± 0.0013 |  |  |
| AUAAAAGCGCCAGAAUUACAGAAAUGUAGUUGACGAGGAGGAGGCUUAUCGAAUUUUCGGCGGAUGCCUCCAAA [C16U U45C] | 0.00254 ± 0.00049 | 4.44e-05 ± 1.1e-05 | 0.000496 ± 0.0001 | 0.00224 ± 0.0007 | 0.00203 ± 0.0003 | 2290 ± 700 | 0.000307 ± 0.00014 |
| AUAAAAGCGCCAGAAUUACAGAAAUGUAGUUGACGAGGAGGAGGGUUAUCGAAUUUUCGGCGGAUGCCUCCAAA [C16U U45G] | 0.00669 ± 0.00062 | 0.000135 ± 2.4e-05 | 0.00156 ± 0.00026 | 0.00321 ± 0.00074 | 0.00593 ± 0.001 | 2070 ± 280 | 0.000468 ± 0.00016 |
| AUAAAAGCGCCAGAAUUACAGAAAUGUAGUUGACGAGGAGGAGGUUUAUCGAAUUUUCGGCGGAUGCCGCCAAA [C16U U69G] | 6.57e-05 ± 1.1e-05 |  | 9.02e-05 ± 2.1e-05 | 8.96e-05 ± 1.1e-05 | 5.34e-05 ± 6.6e-06 |  | 5.84e-05 ± 1.4e-05 |
| AUAAAAGCGCCAGAAUUACAGAAAUGUAGUUGACGAGGAGGAGGUCUAUCGAAUUUUCGGCGGAUGCCUCCAAA [C16U U46C] | 0.0025 ± 0.00034 | 7.03e-05 ± 1.7e-05 | 0.000646 ± 0.00017 | 0.00192 ± 0.00029 | 0.00208 ± 0.00033 | 1320 ± 290 | 0.000295 ± 4.9e-05 |
| AUAAAAGCGCCAGAAUUACAGAAAUGUAGUUGACGAGGAGGAGGUUGAUCGUAUUUUCGGCGGAUGCCUCCAAA [C16U U47G A52U] | 0.000133 ± 8.3e-06 |  | 4.73e-05 ± 1.3e-05 | 8.23e-05 ± 2.3e-05 | 0.000122 ± 2.5e-05 | 1230 ± 200 |  |
| AUAAAAGCGCCAGAAUUACAGAAAUGUAGUUGACGAGGAGGAGGUUUAUCGAAUUUUCGGCGGAGGCCUCCAAA [C16U U65G] | 0.0044 ± 0.00062 | 5.04e-05 ± 6.5e-06 | 0.000544 ± 7.2e-05 | 0.00147 ± 0.00018 | 0.0032 ± 0.00028 | 4300 ± 840 | 0.000151 ± 1.7e-05 |
| AUAAAAGCGCCAGAAUUACAGAAAUGUAGUUGACGAGGAGGAGGUUUAUCGAAUUUUCGGCGGAAGCCUCCAAA [C16U U65A] | 0.00359 ± 0.00068 | 7.34e-05 ± 1.2e-05 | 0.000817 ± 0.00011 | 0.00193 ± 0.00025 | 0.00276 ± 0.00049 | 2370 ± 610 | 0.000189 ± 2.9e-05 |
| AUAAAAGCGCCAGAAUUACAGAAAUGUAGUUGACGAGGAGGAGGUUUAUCGAAUUGUCGGCGGAUGCGUCCAAA [C16U U56G C68G] | 5.74e-05 ± 1.5e-05 |  | 9.61e-05 ± 2.8e-05 |  | 6.1e-05 ± 1.3e-05 |  |  |
| AUAAAAGCGCCAGAAUUACAGAAAUGUAGUUGACGAGGAGGAGGUAUAUCGAAGUUUCGGCGGAUGCCUACAAA [C16U U46A U54G C70A] | 0.000156 ± 2.4e-05 |  | 6.86e-05 ± 2.2e-05 | 0.000143 ± 3.9e-05 | 0.000124 ± 5e-05 | 743 ± 300 |  |
| AUAAAAGCGCCAGAAUUACAGAAAUGUAGUUGACGAGGAGGAGGUUUAUCGAAUUUGCGGCGGAUGCCUCCAAA [C16U U57G] | 7.51e-05 ± 1.3e-05 |  | 3.61e-05 ± 1.3e-05 | 4.22e-05 ± 8.4e-06 | 7.03e-05 ± 1.1e-05 |  |  |
| AUAAAAGCGCCAGAAUUACAGAAAUGUAGUUGACGAGGAGGAGGUUUAUCGAAGUUUCGGCGGAUGCCUCCAAA [C16U U54G] | 0.0201 ± 0.0063 | 0.000682 ± 0.00011 | 0.00575 ± 0.00092 | 0.0115 ± 0.0019 | 0.0185 ± 0.0042 | 1720 ± 730 | 0.00138 ± 0.00023 |
| AUAAAAGCGCCAGAAUUACAGAAAUGUAGUUGACGAGGAGGAGGUUUAUCGAAUUUUCGGCGGAGGGCUCCAAA [C16U U65G C67G] | 0.0015 ± 8.8e-05 | 3.76e-05 ± 1.7e-05 | 0.000493 ± 0.00013 | 0.000981 ± 0.00024 | 0.00128 ± 0.00032 | 1420 ± 160 |  |
